This note sets out measurements from IntAct's records for PubMed 20048159.

Sequences and labels used below:
B1: Ras-related protein Rab-9A (Homo sapiens), P51151 (parent)
chain: MAGKSSLFKVILLGDGGVGKSSLMNRYVTNKFDTQLFHTIGVEFLNKDLEVDGHFVTMQIWDTAGQERFRSLRTPFYRGSDCCLLTFSVDDSQSFQNLSNWKKEFIYYADVKEPESFPFVILGNKIDISERQVSTEEAQAWCRDNGDYPYFETSAKDATNVAAAFEEAVRRVLATEDRSDHLIQTDTVNLHRKPKPSSSCC
partner: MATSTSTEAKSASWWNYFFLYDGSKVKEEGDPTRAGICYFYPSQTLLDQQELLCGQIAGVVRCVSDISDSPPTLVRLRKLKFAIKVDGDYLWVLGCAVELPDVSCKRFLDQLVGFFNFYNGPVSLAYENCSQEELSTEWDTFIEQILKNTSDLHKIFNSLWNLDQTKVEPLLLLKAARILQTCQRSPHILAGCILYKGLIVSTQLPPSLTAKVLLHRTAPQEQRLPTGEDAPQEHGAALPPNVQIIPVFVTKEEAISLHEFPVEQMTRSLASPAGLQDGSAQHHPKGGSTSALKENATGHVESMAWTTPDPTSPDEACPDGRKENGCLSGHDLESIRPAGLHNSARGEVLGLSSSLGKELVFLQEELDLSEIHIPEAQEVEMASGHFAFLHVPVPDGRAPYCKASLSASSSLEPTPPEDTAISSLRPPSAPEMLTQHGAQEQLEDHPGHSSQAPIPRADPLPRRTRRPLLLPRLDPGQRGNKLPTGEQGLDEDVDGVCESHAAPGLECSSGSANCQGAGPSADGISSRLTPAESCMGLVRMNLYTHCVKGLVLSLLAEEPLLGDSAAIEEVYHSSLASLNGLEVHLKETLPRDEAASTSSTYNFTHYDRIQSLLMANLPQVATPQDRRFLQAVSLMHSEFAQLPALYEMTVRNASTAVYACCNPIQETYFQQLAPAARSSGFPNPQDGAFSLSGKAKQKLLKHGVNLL

The experiment covers variants of B1. The settings on record: with hps4_human HPS4, Q9NQG7.
As for H38A;Q66L, the “effect of a mutation on the interaction” value is listed as “with no effect”. As for Q66L;L72A, the entry is “with no effect”. As for T34A;Q66L, the entry is “with no effect”.

I40A;Q66L: the “effect of a mutation on the interaction” value is “disrupting interaction strength”. As for W61A;Q66L, the entry is “disrupting interaction strength”; as for V42A;Q66L, “with no effect”. For Q35A;Q66L the value was “with no effect”; for Q66L, “with no effect”; for F44A;Q66L, “disrupting interaction strength”.

With Q66L;F76A, the “effect of a mutation on the interaction” value is “with no effect”.
